Several values for one entry are separate records, joined by “and”; a condition that tells them apart may be missing. Identical values can stand only once. Each block holds one molecule with its values, some of them ahead of it.
Key:
[1] = molecular target: D147A SeCS (Synechococcus elongatus PCC 7942); assay: mass photometry; 50 nM protein unless stated otherwise, in PBS or 20 mM Tris, 200 mM NaCl pH 7.5; masses of the complexes in solution, fraction of CS subunits in each oligomeric state
[2] = molecular target: D147A SeCS (Synechococcus elongatus PCC 7942); assay: native MS; 200 mM ammonium acetate, positive-ion nanoelectrospray; D147A at 20 µM, D147A + L18Q at 35 µM
[3] = molecular target: D147A SeCS (Synechococcus elongatus PCC 7942); assay: as above; remark: listed apart in the source
[4] = molecular target: H369R SeCS (Synechococcus elongatus PCC 7942); assay: mass photometry; 50 nM protein unless stated otherwise, in PBS or 20 mM Tris, 200 mM NaCl pH 7.5; masses of the complexes in solution, fraction of CS subunits in each oligomeric state
[5] = molecular target: H369R SeCS (Synechococcus elongatus PCC 7942); assay: negative-stain electron microscopy; 450 nM protein on carbon-coated copper grids, 2% uranyl acetate; 2D class averages and manual particle counts
[6] = molecular target: H369R SeCS (Synechococcus elongatus PCC 7942); assay: cryo-EM structure; 22.5 µM protein on Quantifoil 2/1 grids
[7] = molecular target: H369R SeCS (Synechococcus elongatus PCC 7942); assay: as above; remark: listed apart in the source
[8] = molecular target: SeCS D147A + L18Q (Synechococcus elongatus PCC 7942); assay: mass photometry; 50 nM protein unless stated otherwise, in PBS or 20 mM Tris, 200 mM NaCl pH 7.5; masses of the complexes in solution, fraction of CS subunits in each oligomeric state
[9] = molecular target: SeCS D147A + L18Q (Synechococcus elongatus PCC 7942); assay: native MS; 200 mM ammonium acetate, positive-ion nanoelectrospray; D147A at 20 µM, D147A + L18Q at 35 µM
[10] = molecular target: SeCS L18Q (Synechococcus elongatus PCC 7942); assay: mass photometry; 50 nM protein unless stated otherwise, in PBS or 20 mM Tris, 200 mM NaCl pH 7.5; masses of the complexes in solution, fraction of CS subunits in each oligomeric state
[11] = molecular target: SeCS L18Q (Synechococcus elongatus PCC 7942); assay: SAXS; dilution series from the highest concentration, 25 mM Tris-HCl pH 7.5, 200 mM NaCl, 20 °C; Rg by Guinier approximation against Rg of models of the 6mer, 18mer and 54mer
[12] = molecular target: SeCS L18Q (Synechococcus elongatus PCC 7942); assay: negative-stain electron microscopy; 450 nM protein on carbon-coated copper grids, 2% uranyl acetate; 2D class averages and manual particle counts
[13] = molecular target: citrate synthase from Cyanobium sp. PCC7001 (Cyanobium sp. PCC7001); assay: mass photometry; 50 nM protein unless stated otherwise, in PBS or 20 mM Tris, 200 mM NaCl pH 7.5; masses of the complexes in solution, fraction of CS subunits in each oligomeric state
[14] = molecular target: citrate synthase from Planktothrix mougeotii (Planktothrix mougeotii); assay: as above
[15] = molecular target: citrate synthase from Synechococcus elongatus PCC 7942 (Synechococcus elongatus PCC 7942); assay: as above
[16] = molecular target: citrate synthase from Synechococcus elongatus PCC 7942 (Synechococcus elongatus PCC 7942); assay: SAXS; dilution series from the highest concentration, 25 mM Tris-HCl pH 7.5, 200 mM NaCl, 20 °C; Rg by Guinier approximation against Rg of models of the 6mer, 18mer and 54mer
[17] = molecular target: citrate synthase from Synechococcus elongatus PCC 7942 (Synechococcus elongatus PCC 7942); assay: negative-stain electron microscopy; 450 nM protein on carbon-coated copper grids, 2% uranyl acetate; 2D class averages and manual particle counts
[18] = molecular target: citrate synthase from Synechococcus elongatus PCC 7942 (Synechococcus elongatus PCC 7942); assay: mass photometry; pH titration, 20 mM Tris, 200 mM NaCl pH 7–9.5, 50 nM protein
[19] = molecular target: citrate synthase from Synechococcus elongatus PCC 7942 (Synechococcus elongatus PCC 7942); assay: mass photometry; with acetyl-CoA, oxaloacetate or citrate: protein incubated 10 min with the substrate, same substrate concentration in the buffer; cys4 after oxidation
[20] = molecular target: citrate synthase from Synechococcus elongatus PCC 7942 (Synechococcus elongatus PCC 7942); assay: cryo-EM structure; 22.5 µM protein on Quantifoil 2/1 grids
[21] = molecular target: citrate synthase from Synechococcus elongatus PCC 7942 (Synechococcus elongatus PCC 7942); assay: crystal structure; 250 µM protein incubated with 5 mM acetyl-CoA; 0.1 M citrate pH 5.5, 2.0 M ammonium sulfate, 20 °C; citrate-bound
[22] = molecular target: Δ2–6 SeCS (Synechococcus elongatus PCC 7942); assay: mass photometry; 50 nM protein unless stated otherwise, in PBS or 20 mM Tris, 200 mM NaCl pH 7.5; masses of the complexes in solution, fraction of CS subunits in each oligomeric state
[23] = molecular target: Δ2–6 SeCS (Synechococcus elongatus PCC 7942); assay: cryo-EM structure; 22.5 µM protein on Quantifoil 2/1 grids
purified protein [24] = substrate: CC(=O)SCCNC(=O)CCNC(=O)[C@H](O)C(C)(C)COP(=O)(O)OP(=O)(O)OC[C@H]1O[C@@H](n2cnc3c(N)ncnc32)[C@H](O)[C@@H]1OP(=O)(O)O; assay: purified protein; assay type: biochemical, Synechococcus elongatus; settings: 1 mM oxaloacetate, 50 mM Tris pH 7.5, 10 mM KCl, 25 nM protein, 25 °C
purified protein [25] = substrate: O=C(O)CC(=O)C(=O)O; assay: purified protein; assay type: biochemical, Synechococcus elongatus; settings: 0.5 mM acetyl-CoA, 50 mM Tris pH 7.5, 10 mM KCl, 25 nM protein, 25 °C

- stoichiometry N [1]: 2 subunits
- stoichiometry N [2]: 4 subunits and 6 subunits
- stoichiometry N [3]: > 8 subunits
Molecule: D147A SeCS (enzyme)

- stoichiometry N [4]: 18 subunits
- stoichiometry N [5]: 18 subunits and 54 subunits
- stoichiometry N [6]: 18 subunits
- stoichiometry N [7]: 54 subunits
Molecule: H369R SeCS (enzyme)

- stoichiometry N [8]: 2 subunits
- stoichiometry N [9]: 2 subunits and 6 subunits
Molecule: SeCS D147A + L18Q (enzyme)

- stoichiometry N [10]: 6 subunits
- stoichiometry N [11]: 6 subunits
- stoichiometry N [12]: 6 subunits
Molecule: SeCS L18Q (enzyme)

- stoichiometry N [13]: 2 subunits
Molecule: citrate synthase from Cyanobium sp. PCC7001 (enzyme)

- stoichiometry N [14]: 18 subunits
Molecule: citrate synthase from Planktothrix mougeotii (enzyme)

- stoichiometry N [15]: 18 subunits
- stoichiometry N [16]: > 54 subunits
- stoichiometry N [17]: 18 subunits and 36 subunits and 54 subunits
- stoichiometry N [18]: 6 subunits
- stoichiometry N [19]: 6 subunits
- stoichiometry N [20]: 18 subunits
- stoichiometry N [21]: 6 subunits
Molecule: citrate synthase from Synechococcus elongatus PCC 7942 (enzyme)

- stoichiometry N [22]: 6 subunits
- stoichiometry N [23]: 6 subunits
Molecule: Δ2–6 SeCS (enzyme)

B1: SeCS (CS of S. elongatus PCC 7942) (Synechococcus elongatus PCC 7942 = FACHB-805) (protein)
chain: MTAVSEFRPGLEGVPATLSSISFVDGQRGVLEYRGISIEQLAQQSSFLETAYLLIWGHLPTQQELTEFEHEIRYHRRIKFRIRDMMKCFPDSGHPMDALQASAAALGLFYSRRALDDPEYIRAAVVRLLAKIPTMVAAFQLIRKGNDPIQPRDELDYAANFLYMLTEREPDPVAARIFDICLTLHAEHTINASTFSAMVTASTLTDPYAVVASAVGTLAGPLHGGANEEVLDMLEAIGSVENVEPYLDHCIATKTRIMGFGHRVYKVKDPRAVILQNLAEQLFDIFGHDPYYEIAVAVEKAAAERLSHKGIYPNVDFYSGLVYRKLGIPSDLFTPVFAIARVAGWLAHWKEQLNENRIFRPTQIYTGSHNLDYTPIADRDLAIESD
notes: full length, C-terminal His tag (LE-HHHHHH) kept, E. coli BL21 (DE3); 18mer, active as homohexamer
- Km (purified protein [24]): 91.8 ± 9.2 µM
- kcat (purified protein [24]): 24.2 ± 1.3 s⁻¹
- Km (purified protein [25]): 65.6 ± 10.6 µM
- kcat (purified protein [25]): 19.5 ± 1.7 s⁻¹
